Measurements taken from patent publication US20030148958A1 (PROCTER AND GAMBLE, published 2003).
Ends that are not written are not given here.

T1: corticotropin releasing factor 2 receptor
T1 sequence (Q13324 whole entry, species assumed, looked up): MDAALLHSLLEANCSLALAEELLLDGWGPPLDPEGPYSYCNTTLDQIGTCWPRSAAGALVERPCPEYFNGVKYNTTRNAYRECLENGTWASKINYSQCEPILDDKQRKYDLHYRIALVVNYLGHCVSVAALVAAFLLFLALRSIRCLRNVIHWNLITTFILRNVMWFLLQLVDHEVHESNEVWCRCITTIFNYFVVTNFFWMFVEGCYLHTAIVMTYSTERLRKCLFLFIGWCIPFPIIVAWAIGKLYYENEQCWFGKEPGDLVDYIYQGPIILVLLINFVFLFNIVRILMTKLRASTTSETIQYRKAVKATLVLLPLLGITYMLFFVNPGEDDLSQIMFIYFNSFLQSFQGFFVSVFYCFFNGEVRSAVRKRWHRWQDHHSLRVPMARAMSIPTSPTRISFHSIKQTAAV


Each binder was assayed against corticotropin releasing factor 1 receptor (assay: cell-based or functional assay).
Throughout, for CRF1R Emax: reference of the scale not given here.
Throughout, for CRF2R Emax: reference of the scale not given here.

Binder	CRF1R EC50	CRF1R Emax
IVLSLDVPIGLLQILLEQAKQRAAREQATTNARILARV-NH2 [SEQ ID NO 110]	> 100 nM	9%
SQEPPISLDLPTHLLREVLEMTKADQLAQQAHSNRKLLDIA-NH2 [SEQ ID NO 99]	100 nM	4.35%
SQEPPISLDLPIQLLREVLEMTKADQLAQQAHSNRKLLDIA-NH2 [SEQ ID NO 100]	100 nM	6.25%
IVLSLDVPIGLLQILLEQAKARAAREQATTNARILARV-NH2 [SEQ ID NO 109]	100 nM	
IVLSLDVPIGLLQILLEQTKADAAREQATTNARILARV-NH2 [SEQ ID NO 108]	> 100 nM	3%
SQEPPISLDLPFHLLREVLEMTKADQLAQQAHSNRKLLDIA-NH2 [SEQ ID NO 104]	100 nM	11.1%
ZGPPISIDLPFQLLRKMIEIEKQEKEKQQATNNRLLLATV (C-terminal amide) [SEQ ID NO 12]	928 nM	73%
ZGPPISIDLPFQLLRKMIEIEKQEKEKQQATTNRLLLDTI (C-terminal amide) [SEQ ID NO 13]	97.7 nM	69%
SQEPPISLDLPLYLLREVLEMTKADQLAQQAHSNRKLLDIA-NH2 [SEQ ID NO 101]	100 nM	7.35%
SQEPPISLDLPTYLLREVLEMTKADQLAQQAHSNRKLLDIA-NH2 [SEQ ID NO 106]	100 nM	4.8%
SQEPPISLDLPFELLREVLEMTKADQLAQQAHSNRKLLDIA-NH2 [SEQ ID NO 97]	100 nM	4.25%
IVLSLDVPIGLLQILLEQARARAAREQATTQARILARV-NH2 [SEQ ID NO 9]	100 nM	10%
SQEPPISLDLPLHLLREVLEMTKADQLAQQAHSNRKLLDIA-NH2 [SEQ ID NO 102]	100 nM	7.8%
SQEPPISLDLPFGLLREVLEMTKADQLAQQAHSNRKLLDIA-NH2 [SEQ ID NO 103]	100 nM	5.75%
SQEPPISLDLPTQLLREVLEMTKADQLAQQAHSNRKLLDIA-NH2 [SEQ ID NO 105]	100 nM	5.2%
SQEPPISLDLPTGLLREVLEMTKADQLAQQAHSNRKLLDIA-NH2 [SEQ ID NO 98]	100 nM	4%

Now from value to binder:

CRF1R EC50	CRF1R Emax	Binder
> 100 nM	9%	IVLSLDVPIGLLQILLEQERQRAAREQATTNARILARV-NH2 [SEQ ID NO 111]
> 100 nM	8%	IVLSLDVPIGLLQILLEQTRARAAREQATTNARILARV-NH2 [SEQ ID NO 128]
> 100 nM	6%	IVLSLDVPIGLLQILLEQARQRAAREQATTNARILARV-NH2 [SEQ ID NO 114]
100 nM		IVLSLDVPIGLLQILLEQTKARAAREQATTNARILARV-NH2 [SEQ ID NO 117]
1000 nM	10.7%	IVLSLDVPIGLLQILLEQARAEAAREQATTNARILARV-NH2 [SEQ ID NO 122]
> 100 nM	10%	IVLSLDVPIGLLQILLEQAKAEAAREQATTNARILARV-NH2 [SEQ ID NO 112]
100 nM	7%	IVLSLEVPIGLLQILLEQARARAAREQATTNARILARV-NH2 [SEQ ID NO 120]
> 100 nM	7%	IVLSLDVPIGLLQILLEQEKQRAAREQATTNARILARV-NH2 [SEQ ID NO 115]
> 100 nM	9%	IVLSLDVPIGLLQILLEQEKQEAAREQATTNARILARV-NH2 [SEQ ID NO 125]
> 100 nM	8%	IVLSLDVPIGLLQILLEQEKEKKRKETNARILARV-NH2 [SEQ ID NO 132]
> 100 nM	4%	IVLSLDVPIGLLQILLEQERAEAAREQATTNARILARV-NH2 [SEQ ID NO 113]
100 nM	4.8%	IVLSLDVPIGLLQILLEQTKANAAREQATTVARILARV-NH2 [SEQ ID NO 116]
> 100 nM	9%	IVLSLDVPIGLLQILLEQARADAAREQATTNARILARV-NH2 [SEQ ID NO 130]
> 100 nM	6%	IVLSLDVPIGLLQILLEQAKQEAAREQATTNARILARV-NH2 [SEQ ID NO 124]
> 100 nM	7%	IVLSLDVPIGLLQILLEQTRADAAREQATTNARILARV-NH2 [SEQ ID NO 126]
> 100 nM	3%	IVLSLDVPIGLLQILLEQERARAAREQATTNARILARV-NH2 [SEQ ID NO 119]
> 1000 nM	9.6%	IVLSLDVPIGLLQILLEQARQEAAREQATTNARILARV-NH2 [SEQ ID NO 123]
> 100 nM		IVLSLDVPIGLLQILLEQAKARAAREQATTNARILARV-NH2 [SEQ ID NO 127]
> 100 nM	8%	IVLSLDVPIGLLQILLEQAKADAAREQATTNARILARV-NH2 [SEQ ID NO 131]
> 100 nM	5%	IVLSLDVPIGLLQILLEQERQEAAREQATTNARILARV-NH2 [SEQ ID NO 118]
> 100 nM		IVLSLDVPIGLLQILLEQTKARAAREQATTNARILARV-NH2 [SEQ ID NO 129]

The binders below were run against T1, corticotropin releasing factor 2 … (assay: cell-based or functional assay).

Binder	CRF2R EC50	CRF2R Emax
IVLSLDVPIGLLQILLEQAKQRAAREQATTNARILARV-NH2 [SEQ ID NO 110]	11 nM	100%
SQEPPISLDLPTHLLREVLEMTKADQLAQQAHSNRKLLDIA-NH2 [SEQ ID NO 99]	100 nM	4.35%
SQEPPISLDLPIQLLREVLEMTKADQLAQQAHSNRKLLDIA-NH2 [SEQ ID NO 100]	100 nM	9.85%
IVLSLDVPIGLLQILLEQAKARAAREQATTNARILARV-NH2 [SEQ ID NO 109]	11.8 nM	
IVLSLDVPIGLLQILLEQTKADAAREQATTNARILARV-NH2 [SEQ ID NO 108]	79 nM	97%
SQEPPISLDLPFHLLREVLEMTKADQLAQQAHSNRKLLDIA-NH2 [SEQ ID NO 104]	100 nM	4.5%
ZGPPISIDLPFQLLRKMIEIEKQEKEKQQATNNRLLLATV (C-terminal amide) [SEQ ID NO 12]	9.72 nM	91%
ZGPPISIDLPFQLLRKMIEIEKQEKEKQQATTNRLLLDTI (C-terminal amide) [SEQ ID NO 13]	3.88 nM	79%
SQEPPISLDLPLYLLREVLEMTKADQLAQQAHSNRKLLDIA-NH2 [SEQ ID NO 101]	100 nM	6.95%
SQEPPISLDLPTYLLREVLEMTKADQLAQQAHSNRKLLDIA-NH2 [SEQ ID NO 106]	100 nM	6.1%
SQEPPISLDLPFELLREVLEMTKADQLAQQAHSNRKLLDIA-NH2 [SEQ ID NO 97]	100 nM	7.6%
IVLSLDVPIGLLQILLEQARARAAREQATTQARILARV-NH2 [SEQ ID NO 9]	100 nM	34%
SQEPPISLDLPLHLLREVLEMTKADQLAQQAHSNRKLLDIA-NH2 [SEQ ID NO 102]	100 nM	13.5%
SQEPPISLDLPFGLLREVLEMTKADQLAQQAHSNRKLLDIA-NH2 [SEQ ID NO 103]	100 nM	4.85%
SQEPPISLDLPTQLLREVLEMTKADQLAQQAHSNRKLLDIA-NH2 [SEQ ID NO 105]	100 nM	9.15%
SQEPPISLDLPTGLLREVLEMTKADQLAQQAHSNRKLLDIA-NH2 [SEQ ID NO 98]	100 nM	5.5%

Now from value to binder:

CRF2R EC50	CRF2R Emax	Binder
10.9 nM	99%	IVLSLDVPIGLLQILLEQERQRAAREQATTNARILARV-NH2 [SEQ ID NO 111]
2.85 nM	98%	IVLSLDVPIGLLQILLEQTRARAAREQATTNARILARV-NH2 [SEQ ID NO 128]
3.42 nM	100%	IVLSLDVPIGLLQILLEQARQRAAREQATTNARILARV-NH2 [SEQ ID NO 114]
9.41 nM		IVLSLDVPIGLLQILLEQTKARAAREQATTNARILARV-NH2 [SEQ ID NO 117]
3.31 nM	97%	IVLSLDVPIGLLQILLEQARAEAAREQATTNARILARV-NH2 [SEQ ID NO 122]
12.3 nM	100%	IVLSLDVPIGLLQILLEQAKAEAAREQATTNARILARV-NH2 [SEQ ID NO 112]
69.9 nM	100%	IVLSLEVPIGLLQILLEQARARAAREQATTNARILARV-NH2 [SEQ ID NO 120]
13.6 nM	98%	IVLSLDVPIGLLQILLEQEKQRAAREQATTNARILARV-NH2 [SEQ ID NO 115]
4.47 nM	99%	IVLSLDVPIGLLQILLEQEKQEAAREQATTNARILARV-NH2 [SEQ ID NO 125]
7.53 nM	88%	IVLSLDVPIGLLQILLEQEKEKKRKETNARILARV-NH2 [SEQ ID NO 132]
11.3 nM	98%	IVLSLDVPIGLLQILLEQERAEAAREQATTNARILARV-NH2 [SEQ ID NO 113]
100 nM	26.4%	IVLSLDVPIGLLQILLEQTKANAAREQATTVARILARV-NH2 [SEQ ID NO 116]
8.57 nM	92%	IVLSLDVPIGLLQILLEQARADAAREQATTNARILARV-NH2 [SEQ ID NO 130]
3.49 nM	94%	IVLSLDVPIGLLQILLEQAKQEAAREQATTNARILARV-NH2 [SEQ ID NO 124]
13 nM	91%	IVLSLDVPIGLLQILLEQTRADAAREQATTNARILARV-NH2 [SEQ ID NO 126]
3.57 nM	95%	IVLSLDVPIGLLQILLEQERARAAREQATTNARILARV-NH2 [SEQ ID NO 119]
3.49 nM	93.8%	IVLSLDVPIGLLQILLEQARQEAAREQATTNARILARV-NH2 [SEQ ID NO 123]
7.79 nM		IVLSLDVPIGLLQILLEQAKARAAREQATTNARILARV-NH2 [SEQ ID NO 127]
5.25 nM	91%	IVLSLDVPIGLLQILLEQAKADAAREQATTNARILARV-NH2 [SEQ ID NO 131]
14.6 nM	100%	IVLSLDVPIGLLQILLEQERQEAAREQATTNARILARV-NH2 [SEQ ID NO 118]
3.83 nM		IVLSLDVPIGLLQILLEQTKARAAREQATTNARILARV-NH2 [SEQ ID NO 129]
